Data taken from paper PMC2647316 (Nucleic Acids Research, 2008).

Assays:
Assay in all cases: SPR
[1] = target: T1, GkDnaC replicative helicase WT (Geobacillus kaustophilus HTA426, UniProt Q5KU75 1-454)
T1 sequence: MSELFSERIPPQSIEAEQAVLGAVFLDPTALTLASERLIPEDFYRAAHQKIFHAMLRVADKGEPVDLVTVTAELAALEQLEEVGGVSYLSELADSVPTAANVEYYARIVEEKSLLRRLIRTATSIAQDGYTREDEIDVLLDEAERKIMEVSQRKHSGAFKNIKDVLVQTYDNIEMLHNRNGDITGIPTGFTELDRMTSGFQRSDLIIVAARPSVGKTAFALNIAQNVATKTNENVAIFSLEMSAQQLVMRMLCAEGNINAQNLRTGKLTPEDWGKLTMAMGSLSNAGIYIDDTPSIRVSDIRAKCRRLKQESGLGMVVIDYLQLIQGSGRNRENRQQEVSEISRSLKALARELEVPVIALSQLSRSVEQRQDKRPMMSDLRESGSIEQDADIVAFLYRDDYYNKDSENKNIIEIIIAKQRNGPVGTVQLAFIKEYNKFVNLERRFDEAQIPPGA

[2] = target: T2, GkDnaC R117A (Geobacillus kaustophilus HTA426, UniProt Q5KU75 1-454, R117A)
T2 sequence: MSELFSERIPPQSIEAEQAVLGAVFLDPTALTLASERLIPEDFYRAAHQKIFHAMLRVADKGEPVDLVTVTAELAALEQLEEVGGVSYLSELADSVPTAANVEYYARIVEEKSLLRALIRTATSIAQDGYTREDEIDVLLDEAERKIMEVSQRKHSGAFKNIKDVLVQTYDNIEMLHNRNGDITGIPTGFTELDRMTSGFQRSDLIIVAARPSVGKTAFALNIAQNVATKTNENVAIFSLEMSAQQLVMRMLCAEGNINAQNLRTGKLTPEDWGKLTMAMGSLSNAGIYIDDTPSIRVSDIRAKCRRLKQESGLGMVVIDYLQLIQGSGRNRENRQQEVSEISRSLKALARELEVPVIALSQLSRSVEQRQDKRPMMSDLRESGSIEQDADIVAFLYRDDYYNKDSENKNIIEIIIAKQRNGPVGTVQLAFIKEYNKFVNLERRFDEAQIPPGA

[3] = target: T3, GkDnaC R145K146A double mutant (Geobacillus kaustophilus HTA426, UniProt Q5KU75 1-454, R145A;K146A)
T3 sequence: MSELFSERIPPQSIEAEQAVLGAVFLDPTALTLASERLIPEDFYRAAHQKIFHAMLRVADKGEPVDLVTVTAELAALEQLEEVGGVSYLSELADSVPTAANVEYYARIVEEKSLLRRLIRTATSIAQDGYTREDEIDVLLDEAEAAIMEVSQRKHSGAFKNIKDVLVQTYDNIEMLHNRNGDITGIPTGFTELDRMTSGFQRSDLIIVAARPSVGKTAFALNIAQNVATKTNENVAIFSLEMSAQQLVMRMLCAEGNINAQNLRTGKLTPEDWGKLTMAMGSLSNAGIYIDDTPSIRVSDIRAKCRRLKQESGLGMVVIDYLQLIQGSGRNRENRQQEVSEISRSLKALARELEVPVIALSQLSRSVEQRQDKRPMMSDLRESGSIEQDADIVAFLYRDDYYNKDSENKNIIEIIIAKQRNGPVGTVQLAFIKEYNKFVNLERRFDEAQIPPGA

[4] = target: T4, GkDnaC K50A (Geobacillus kaustophilus HTA426, UniProt Q5KU75 1-454, K50A)
T4 sequence: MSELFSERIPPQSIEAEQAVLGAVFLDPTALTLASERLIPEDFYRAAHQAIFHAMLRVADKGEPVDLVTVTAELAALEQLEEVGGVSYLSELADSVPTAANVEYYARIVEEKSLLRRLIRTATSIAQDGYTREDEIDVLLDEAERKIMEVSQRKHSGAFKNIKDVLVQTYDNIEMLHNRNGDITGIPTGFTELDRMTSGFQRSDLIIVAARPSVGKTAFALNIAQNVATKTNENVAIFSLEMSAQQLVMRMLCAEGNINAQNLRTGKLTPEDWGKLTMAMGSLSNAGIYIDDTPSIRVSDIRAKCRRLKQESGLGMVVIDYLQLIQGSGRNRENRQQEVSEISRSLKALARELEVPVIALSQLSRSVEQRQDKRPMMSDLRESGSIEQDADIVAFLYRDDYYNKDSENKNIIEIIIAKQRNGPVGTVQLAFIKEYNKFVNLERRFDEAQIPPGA

Binder: TTTTTTTTTTTTTTTTTTTTTTTTTTTTTT (ssDNA) [5'Bio-(dT)30]
- Kd [1]: 46.9 nM
- Kd [2]: 1470 nM
- Kd [3]: 27000 nM
- Kd [4]: 1410 nM
